From the nanobody polyreactivity screen of Harvey et al. (2022) come the findings set out here.

This series in a line: yeast display, Sf9 membrane polyspecificity reagent, FACS + sequencing; frameworks hold sequencing errors. The essentials: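 Nanobodies came from a synthetic yeast display library in Saccharomyces cerevisiae BJ5465, induced with galactose for 36–48 hours and stained for 1 hour at 4 °C with 10% biotinylated, detergent-solubilized Sf9 membrane reagent. Cells were enriched on streptavidin microbeads and then FACS-sorted, with low and high (top ~1%) gates set on anti-HA fluorescence for expression and streptavidin fluorescence for reagent binding. Each polyreactivity label reflects the gate a clone came from. Genes were amplified by colony PCR, sequenced by MiSeq 2 × 250 and filtered by CDR length.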
As to “QVQLVESGGGLVQAGGSLRLSCAASGRIFGGYAMGWYRQAPGKERELVASITARGTSTYYADTVKGRFTISRDNAKNTVYLQMNRLKPEDTAVYYCNALYRIYRNQWFISNYGYYYWGQGTQVTVSS”, the “polyreactivity (PSR sort gate)” value was “low polyreactivity”. On to “QFQLVESGGGLVQAGGSLRLSCAASGFIFFNYAMGWYRQAPGKERELVASINWSTGSTYADSVKGRFTISRDNAKNTVYLQMNSLKPEDSAVYYCNTDHRRVAIPGGYWGQGTQVTVSS”, for which the “polyreactivity (PSR sort gate)” value is reported as “low polyreactivity”.

In the case of “QVQLVESGGGLVQAGGSLRLSCAASGSIFLYARGWYRQAPGKERELVAAINRRGGSTYYADSVKGRFTISRDNAKNTVYLQMNSLKPEDTAVYYCAVVYLLPRYWWRYDYWGQGTQVTVSS”, the “polyreactivity (PSR sort gate)” value was “low polyreactivity”.

With “QVQLVESGGGLVQAGGSLRLSCAASGSIYFTNAMGWYRQAPGKERELVAAIRWRGDRTYYADSVKGRFTISRDNGKNTVYLQMNSLIPEDTAVYYCAVAPSYKITEDSWGQGTQVTVSS”, the “polyreactivity (PSR sort gate)” value was “low polyreactivity”. With “QVQLVESGGGLVQAGGSLRLSCAASGRTFTDNAMGWYRQAPGKERELVAAISRRGGSTYYADSVKGRFTISRDNAKNTVYLQMNSLKPEVTAVYYCNTDEIAGGFPYRYYLYYGYDYWGQGTQVTVSS”, the “polyreactivity (PSR sort gate)” value is recorded as “low polyreactivity”.

On to “QVQLVESGGGLVQAGGSLRLSCAASVFIFDTYTMGWYRQAPGKERELVAAITGSGVNTYYADSVKGRFTISRDNAKNTVYLQMNSLKPEDTAVYYCAARRKNRRDYDYYYWGQGTQVTVSS”, for which the “polyreactivity (PSR sort gate)” value is given as “high polyreactivity”. As for “QVQLEESGGGLVQAGGSLRLSCAASGRTFSYYSMGCYRKAPGKERELVAAITSGGRTYYADSVKGRFTISRDNAKNTVYLQINSLKPEDTAVYYCAARWYARSLTRFNYWGQGTQVTVSS”, the “polyreactivity (PSR sort gate)” value was “high polyreactivity”. On to “QVQLVESGGGLVQAGGSLRLSCAASGTLRYYAMGWYRQAPGKERELVAAISKSGGRTYYADSVKGRFTISRDNAKNTVYLQMNSLKPEDTAVYYCAARGWTANYEMDHWGQGTQVTVSS”, for which the “polyreactivity (PSR sort gate)” value is reported as “high polyreactivity”. With “QVQLVESGGGLVQAGGSLRLSCAASGLTFRSYTMGWYRQAPGKERELVAAISSGGSTYYADSVKGRFTISRDNAKNTVYLQMNSLKPEDTAVYYCAAPRGHGKYYSWGQGTQVTVSS”, the “polyreactivity (PSR sort gate)” value is reported as “high polyreactivity”. As to “QVQLVESGGGLVQAGGSLRLSCAASGSIFAYYAMGWYRQAPGKERELVADITSSGGITYYADSVKGRFTISRDNAKNTVYLQMISLKPEDTAVYYCNADSWAIGGGSYPFDYWGQGTQVTVSS”, the “polyreactivity (PSR sort gate)” value was “low polyreactivity”. As for “QVQLVESGGGLVQAGGSLRLSCAASGRTFDEYAMGWYRQAPGKERVLVAAIDSGGSTTYADSVKGRFTISRDNAKNTVYLQINSLKPEDTAVYYCAASYPYWYITPRKFEYWGQGTQVTVSS”, the “polyreactivity (PSR sort gate)” value is listed as “low polyreactivity”. Take “QLQLLESGGGIVQAGGILRLSCAASGFTFAHYAMGWYRQAPGIERELVAAITSRGGSTYYADSVKGRFTISRDNAKNPVYLQMNSLKPEDTAVYYCAAKTLLFIFGYWGQGTHVTVSS”: the “polyreactivity (PSR sort gate)” value is listed as “high polyreactivity”. Turning to “QVHLVETGGALVQAGGSLRISCAASGLTFLDYAMGWYRQSTGKERELGAAITSGGSTNYADSVKGRFTISGDNATTTVYFQMISLKPEDTAVYYCATDLEVSAYDYWGQGNQVTVSS”, the “polyreactivity (PSR sort gate)” value is on record as “low polyreactivity”. For “QVQLVESGGGLVQAGGSLRLSCAASGFTFYRNTMGWYRQAPGKERELVARIRSVGSTYYADSVKGRFTISRDNAKNTVFLQMNSLKREDTAVYYCAAGPVYDWRGGALRYYYWGQGTQVTVSS”, the “polyreactivity (PSR sort gate)” value was “high polyreactivity”. Next, “QVQLVESGGGLVQAGGSLRLSCAASGITSYYYTMGWYRQAPGKERELVAAITSGGSTYYADSVKGRFTISRDNAKNSVYLQMNSLKPEDTAVYYCTADNPRYRGSKYGPYDDYNYWGQGTQVTVSS”: “low polyreactivity”. As to “QVQLVESGGGLVQAGGSLRLSCAASGRIFSNYAMGWYRQAPGKERELVAAITRSGGSTYYADSVKGRFTISRDNAKNTVYLQMNSLKPEDTAVYYCNTAYRRRYTYDYWGQGTQVTVSS”, the “polyreactivity (PSR sort gate)” value is reported as “high polyreactivity”. For “QVLLQESGGGLVQAGGSLRLSCASSGTISTDIRMGWYRLAPGKEREFVASIDGCSTTYYADSVKGRFSISRDNAKNTVYLQMNSLKPEDTSMYYCAAREATEFYLYYWGQGTQVTVSS”, the “polyreactivity (PSR sort gate)” value is recorded as “low polyreactivity”. Next, “QVQLVESGGGLVQAGASLRLSCPPSGFIFSLYAMGWYSQAPGKERELVADISWGDGTTYYADSVKGRFTISRDNAKNTVYLQMNSLKPEDTAVYYCAADSVSNWYWFNYWGQGTQVTVSS”: “high polyreactivity”. On to “QVQLVESGGGLVQAGGSLRLSCAASGFTFFSNAMGWNRQAPGKERELVAAIDWSGDNTNYADSVKGRFTISRDNAKNTVYLQLNSLKPEDTAVYYCAAVYSYYRLYAYPAYYYWGQGTQVTVSS”, for which the “polyreactivity (PSR sort gate)” value was “low polyreactivity”. On to “QVQLVESGGGLVQAGGSLRLSCAASGFTFVRNAMGWYRQAPGKERELVAAISGSGGRTYYADSVKGRFTISRDNAKNTVYLQMNSLKPEDTAVYDCNTASAYEYEYWGQGTQVTVSS”, for which the “polyreactivity (PSR sort gate)” value is “high polyreactivity”. “QVQLVESGGGLVQAGGSLRLSCAASGITFRNYAMGWYRQAPGKEREFVAAIRWGGGSTYYEDSGKGRFTISLDNAKNTVYLQMNSLKPEDTAVYYCATRGYSRNNPYSRPYDYWGQGTQVTVSS”: the “polyreactivity (PSR sort gate)” value is on record as “high polyreactivity”. “QVQLVESGGGLVQAGGSLRLSCAASGSTFDQYAMGWYRQAPGKDRELVAAISGSGGRTSYADSVKGRFTISRDNAKNTVYLQMNSLKPEDTAVYYCNKASYRISVPRYDYWGQGTQVTVTS”: the “polyreactivity (PSR sort gate)” value is on record as “high polyreactivity”. “QVQLEESGGGLVQAGGSLRLSCAASGIIFSGNAMGWYRQAPGKERELVAANTRSGGTTYYADSVKGRFTISRDNAKNTVYLQMNSLKPEDTAVYYCAASYPLYVFYVSGYDYWGQGTQVTVSS”: the “polyreactivity (PSR sort gate)” value is “low polyreactivity”. For the sequence “QVQLVESGGGLVQAGGSLRLSCAASGSTSNTMTWDGIDRRLGKKGSWLPPITVSGGGTYYADSVKGRFTISRDNANNTVYLQMNSLKPEDTAVYYCATEYELAIYGDDYWGQGTQVTVSS”, the “polyreactivity (PSR sort gate)” value is “low polyreactivity”. The entry for “QVQLVESGGGLVQAGGSLRLSCAASGSIFSANVMGWYRQAPGTERELVAAIRRGGTTYYADSVKGRFTISRDNAKNTVYLQMNSLKPEDTAVYYCATDGIFGSYLRFEVAYDYWGQGTQVTVSS” is “low polyreactivity”. On to “QVQLVESGGGLVQAGGSLRLSCAASGFIFYSYAMGWYRQAPGKERELVAAISWSGGRTYYADSVKGRFTISRDNAKNTVYLQMNSLKPEDTAVYYCNADDYSFSFTVPYYIEYDYWGQGTQVTVSS”, for which the “polyreactivity (PSR sort gate)” value is recorded as “high polyreactivity”. On to “QVQLVESGGGLVQAGGSLRLSCAASGFTFEWYTMRCYRQAPGKERELVADISGDGSTYYADSVKGRFTISRDNAKNTVYLQMNSLKPEDTAVYYCAARTRRYHRPGLSPGNYWGQGTQVTVSS”, for which the “polyreactivity (PSR sort gate)” value was “high polyreactivity”. On to “QVQLVESGGGLVQAGGSLRLSCAASGGTILLYAMGWYRQAPGKERELVAGINSGGSTYYADSVKGRFTISRDNAKNTVYLQMNSLKPEDTAVYYCNARSTRYGGDYWGQGTQVTVSS”, for which the “polyreactivity (PSR sort gate)” value was “low polyreactivity”. Take “QVQLVESGGGLVQAGGSLRLSCAASGRTFYPNAMGWYRQAPGKERELVAAISLSGTRTNYADSVKGRFTISRDNAKNTVYLQMNSLKPEDTAVYYCAARYGNFDGRNYYWGQGTQVTVSS”: the “polyreactivity (PSR sort gate)” value is given as “high polyreactivity”.

On to “QVQLVESGGGLLQAGGSLRLSCAASGSNFVAYAMGRYRQAPGKERELVAAITYSGGGTYYADSVKGRCTISRDNAKNTVYLLMNSLKPEDTALYYCNAVGGIYDFDYCGQGTQVTVSS”, for which the “polyreactivity (PSR sort gate)” value is recorded as “high polyreactivity”. “QVQLVESGGGLVQAGGSLRLSCAASGFIFAFYDMGWYRQAPGKERELVAAISWGGSTYYADSVKGRFTISRDNAKNTVYLQMNSLKPQDTAVYYCAARLSRSYRYGYWGQGTQVTVSS”: the “polyreactivity (PSR sort gate)” value was “high polyreactivity”. The entry for “QVQLVESGGGLVQAGGSLRLSCAASGRIFSAYAMGLYRQAPGKERELVAAITSVGSTKYADSVKGRFTISRDNAKNTVYLQMNSLIPEDTAVYYCAAEYTRSFYIYYRFGYWGQGTQVTVSS” is “high polyreactivity”.

For “QGQLVESGGGLVQAGGSLRLSCAASGSIFSKNALGWYRQAPGRERELVAAITSGASTNYADSVKGRFTISRDNAKNTVYLQMNSLKPEDTAGYYCAAKRNGFWYGYWGQGTQVTVSS”, the “polyreactivity (PSR sort gate)” value was “low polyreactivity”. As for “QVQLVETGGGLVQAGGSLRLSCAASGATFNANGMGWYRQAPGKERELVAAISQRAGRTYYADSVKGRFTISRDNAKNTVYLQMNSLKPEDTAVYYCAARYLGGYYFRYYYWGQGTQVTVSS”, the “polyreactivity (PSR sort gate)” value was “high polyreactivity”. Take “QVQLVESGGGLVQAGGSLRLSCAASGRTFFWYVMGWYRQAPGKERELVATISYGGITYYADSVKGRFTISRDNAKNTVYLQMNSLKPEETALYYCAAKPSRSLYYYWGQGTQVTVSS”: the “polyreactivity (PSR sort gate)” value is “high polyreactivity”.

In the case of “QVQLVESGGGLVQAGGSLRLICAASGRIFSRNAMGWYRQAPGKERELVAGISARGGRTYYADSVKGRFTISRDNAKNTVYLQMNSLKPEDTAVYYCNARTGYQDGTYGNDYWGQGTQVTVSS”, the “polyreactivity (PSR sort gate)” value is given as “high polyreactivity”. Take “QVQLVESGGGLVQAGGSLRLRCAASGNIFLSYAMGWYRQAPGKERELVAGISASGGRTYYADSVKGRFTISRDNAKNTVYLQMNSLKPEDTAVYYCATRGQTRTTTRYYSWGQGTQVTVSS”: the “polyreactivity (PSR sort gate)” value is recorded as “high polyreactivity”. The entry for “QVQLVESGGGLVQAGGSLRLSCAASGFIFSVYTMGWYRQAPGKERELVASITGSGGDTYYADSVKGRFTISRDNAKNTVYLQMNSLKPEDTAVYYCNVDAGFHDSYHAWNFRYDYWGQGTQVTVSS” is “low polyreactivity”; for “QVQHVESCGGLVQAGGSLRLSCDASGSTFYYYAMGWSRQGPGKERELVAAISLGGGSTYYADSVKGRFTISRDNAKNTVYLHMNSLKPEDSAVYYCAARRVGGGFYTWRNPAYEYWGQGTQVTVSS” it is “high polyreactivity”. Regarding “QVQLVESGGGLVQAGGSLRLSCAASGSTFAGYAMGWYRQPPGKERELVAAISYSGGTTYYADSVKGRFTISRDNAKNTVYLQMNSLKPEDTAVYYCAARKKFKTPSYDMYYWGQGTQVTVSS”, the “polyreactivity (PSR sort gate)” value was “high polyreactivity”.
